Measurements from patent US6468985B1, “Retinoblastoma protein-interacting zinc finger proteins” (The Burnham Institute, priority 1994, dated 2002).

Legend:
[1] = biological target: T1, wild-type Rb (Homo sapiens, UniProt P06400); test: binding of GST-RIZ (245-573) to 35S-labeled Rb, immunoprecipitation with anti-RIZ antiserum
T1 construct: Wild-type (wt) full length Rb (A9); made in house; host or cells: in vitro transcription/translation
T1 sequence (P06400 1-928): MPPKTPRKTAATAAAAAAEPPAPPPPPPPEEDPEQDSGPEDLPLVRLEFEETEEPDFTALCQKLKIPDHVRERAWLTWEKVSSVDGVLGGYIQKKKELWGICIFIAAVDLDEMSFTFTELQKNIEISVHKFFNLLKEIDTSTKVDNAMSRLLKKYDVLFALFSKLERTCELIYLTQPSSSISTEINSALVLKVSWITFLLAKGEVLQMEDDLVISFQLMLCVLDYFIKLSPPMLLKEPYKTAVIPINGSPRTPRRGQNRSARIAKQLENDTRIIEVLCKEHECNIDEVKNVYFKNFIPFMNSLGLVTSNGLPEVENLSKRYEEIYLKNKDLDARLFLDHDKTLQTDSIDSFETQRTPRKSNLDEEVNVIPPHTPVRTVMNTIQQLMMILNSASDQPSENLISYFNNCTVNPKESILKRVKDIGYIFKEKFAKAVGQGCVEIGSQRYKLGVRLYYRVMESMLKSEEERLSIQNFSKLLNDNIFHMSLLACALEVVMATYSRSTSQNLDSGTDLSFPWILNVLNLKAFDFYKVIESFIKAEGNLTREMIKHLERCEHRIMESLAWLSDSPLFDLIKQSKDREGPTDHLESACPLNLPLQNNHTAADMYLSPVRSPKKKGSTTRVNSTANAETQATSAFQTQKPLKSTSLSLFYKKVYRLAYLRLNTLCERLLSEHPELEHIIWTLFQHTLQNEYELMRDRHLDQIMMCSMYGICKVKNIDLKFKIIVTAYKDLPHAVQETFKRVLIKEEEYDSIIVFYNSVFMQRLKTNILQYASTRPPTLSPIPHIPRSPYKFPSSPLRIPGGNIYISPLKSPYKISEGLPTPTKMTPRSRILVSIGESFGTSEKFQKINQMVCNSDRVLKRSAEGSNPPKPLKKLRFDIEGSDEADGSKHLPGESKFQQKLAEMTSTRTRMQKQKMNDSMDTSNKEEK
Protocol: (§1) The 56 kD Rb fragment that binds to RIZ is a C-terminal fragment containing the Rb pocket binding region and a C-terminal extension. To further define the portion of 56 kD Rb that binds to RIZ, several Rb mutant polypeptides were tested for binding to RIZ. Mutant and full length Rb were cloned and in vitro transcribed/translated as described previously (Huang et al., supra, 1990). H209 is a point mutation resulting in a single amino acid change in Rb that was identified in the small cell lung cancer H209 cell line (American Type Culture Collection (ATCC) #HTB 172). The various Rb forms were tested for binding to glutathionine S-transferase (GST) fused to a fragment of RIZ from amino acid position 245-573 (GST-RIZ (245-573)). This RIZ fragment contains all of the E1A motifs related to binding Rb and was constructed by cloning a Stu I-Hpa I RIZ fragment (nucleotide 795-3068) into vector pBSK+ to make pBSK+SH. An Eco RI fragment was removed from pBSK+SH and ligated into pGEX-KG to produce vector pKG7.1S containing GST-RIZ (245-573).
(§2) The binding between purified GST-RIZ (245-573) and the above radiolabeled Rb wild-type and deletion mutants was determined by immunoprecipitation with an anti-RIZ antiserum followed by SDS-PAGE and autoradiography. […]

[2] = biological target: T2, B3 mutant of Rb (Homo sapiens, UniProt P06400); test: binding of GST-RIZ (245-573) to 35S-labeled Rb mutant, immunoprecipitation with anti-RIZ antiserum; details: deletion C-terminal to the Rb binding pocket
T2 construct: made in house; host or cells: in vitro transcription/translation
T2 sequence (P06400 1-803): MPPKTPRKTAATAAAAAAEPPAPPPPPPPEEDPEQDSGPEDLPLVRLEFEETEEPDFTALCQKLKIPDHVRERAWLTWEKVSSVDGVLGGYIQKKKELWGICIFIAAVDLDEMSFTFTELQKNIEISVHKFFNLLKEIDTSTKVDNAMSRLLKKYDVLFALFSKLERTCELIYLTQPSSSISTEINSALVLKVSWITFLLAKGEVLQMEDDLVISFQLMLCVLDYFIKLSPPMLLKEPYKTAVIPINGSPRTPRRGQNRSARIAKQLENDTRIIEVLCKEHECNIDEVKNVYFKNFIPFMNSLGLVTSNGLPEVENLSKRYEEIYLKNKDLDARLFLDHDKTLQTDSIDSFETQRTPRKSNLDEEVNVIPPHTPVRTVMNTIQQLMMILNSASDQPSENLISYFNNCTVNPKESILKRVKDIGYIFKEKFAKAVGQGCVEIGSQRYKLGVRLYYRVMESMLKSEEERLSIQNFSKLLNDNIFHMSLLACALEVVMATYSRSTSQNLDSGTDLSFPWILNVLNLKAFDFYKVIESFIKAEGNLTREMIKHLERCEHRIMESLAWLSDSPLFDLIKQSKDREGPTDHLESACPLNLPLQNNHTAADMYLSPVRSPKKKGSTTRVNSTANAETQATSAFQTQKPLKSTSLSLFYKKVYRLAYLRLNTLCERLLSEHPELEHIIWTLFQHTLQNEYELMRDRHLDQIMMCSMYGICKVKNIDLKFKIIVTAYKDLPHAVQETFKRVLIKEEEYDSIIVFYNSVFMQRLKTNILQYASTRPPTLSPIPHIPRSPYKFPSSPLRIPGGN
Protocol: as §1, §2

[3] = tested on: Rb having a deletion within the pocket; test: binding of GST-RIZ (245-573) to 35S-labeled Rb pocket deletion mutants, immunoprecipitation with anti-RIZ antiserum
Protocol: as §1, §2

B1: GST-RIZ (245-573): glutathionine S-transferase fused to RIZ fragment a.a. 245-573 containing zinc fingers 1-3 (protein)
chain: CEPQPEVDGKQEVTDCEVNDVEEEELEEEEELEEEEEEELGEDGVEEADMPNESSAKEPEIRCEEKPEDLLEEPQSMSNEAREDSPDVTPPPHTPRAREEANGDVLETFMFPCQHCERKFATKQGLERHMHIHISTINHAFKCKYCGKRFGTQINRRRHERRHETGLKRRPSMTLQSSEDPDDGKGENVTSKDESSPPQLGQDCLILNSEKTSQEVLNSSFVEENGEVKELHPCKYCKKVFGTHTNMRRHQRRVHERHLIPKGVRRKGGLLEEPQPPAEQAPPSQNVYVPSTEPEEEGETDDVYIMDISSNISENLNYYIDGKIQTNSS
modifications: left off: a dimerising Fc or GST
- binding to wild-type Rb [1]: showed binding
- binding to B3 mutant of Rb [2]: showed binding
- binding to three forms of Rb having a deletion within the pocket [3]: failed to bind
